Results on 9 molecules are retold here after US20130224224A1 (Boehringer Ingelheim, published 2013).

Numbering of substitutions follows the chain as printed.

In assay [1] the target is T1, human CX3CR1 (human, UniProt P49238 1-355).
T1 sequence: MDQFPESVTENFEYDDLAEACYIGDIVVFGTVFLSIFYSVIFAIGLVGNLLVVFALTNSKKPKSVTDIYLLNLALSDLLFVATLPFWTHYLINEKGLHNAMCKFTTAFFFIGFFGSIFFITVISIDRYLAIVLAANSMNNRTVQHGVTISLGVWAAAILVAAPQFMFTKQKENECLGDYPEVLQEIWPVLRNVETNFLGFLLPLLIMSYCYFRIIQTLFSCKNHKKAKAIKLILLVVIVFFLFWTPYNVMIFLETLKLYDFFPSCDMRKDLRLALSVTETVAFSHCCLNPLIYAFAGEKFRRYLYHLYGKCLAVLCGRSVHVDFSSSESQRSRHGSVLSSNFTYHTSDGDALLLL
Put plainly: cell-based or functional assay.

The target in assay [2] is T1, human CX3CR1. Put plainly: A647-fractalkine competition FACS, CHO-huCX3CR1. The text has this: (§1) Periplasmic extracts were screened in a human CX3CR1/human Fractalkine FACS competition assay to assess the blocking capacity of the expressed VHHs. Human CX3CR1 was presented on CHO cells overexpressing CX3CR1. Both a setup using cells harvested from an actively growing culture and a setup using frozen cells was used. As a detection reagent labeled fractalkine was used (R&D Systems, Minneapolis, Minn., USA) labeled with alexa647 (A647-Fractalkine) at a degree of labeling of 1. To setup the assay, first a titration series of the labeled fractalkine was performed on the CHO-huCX3CR1 cells in order to determine the EC50 value for binding. Initially screening was performed at a higher concentration of fractalkine (3 nM) to increase the assay robustness. To increase the sensitivity of the screening to a maximum, the EC30 concentration (1 nM) was chosen for subsequent screening. In brief 50 μl of periplasmic extract was added to 6 nM labeled fractalkine (50 μ;) and 200 000 CHO-huCX3CR1 cells. After one hour incubation at 4 C, cells were washed three times before read out was performed on a FACS Array (Becton Dickinson). First a gate was set on the intact cells as determined from the scatter profile. Next, dead cells were gated out by their fluorescence profile from the PI stain (Sigma, St Louis, US). The fluorescence profile from the alexa647 label was determined for each sample and used for calculation of blocking capacity. As controls, conditions were taken along where there was no VHH present in the peri extract or a known irrelevant VHH and samples were included where excess cold fractalkine was included. For each sample the percentage block was determined using the control samples to determine the assay window.
(§2) The blocking capacity towards the ligand fractalkine of the VHHs was evaluated in a human CX3CR1 competition FACS as outlined in Example 4. Either CHO-huCX3CR1 cells, BA/F3-huCX3CR1 cells or transiently transfected HEK293T cells were used. The amount of labeled ligand used in the different competition setups was also varied. The IC₅₀ values for VHHs blocking the interaction of human fractalkine to human CX3CR1 are depicted in Table 19.

Assay [3] concerns the target T1, human CX3CR1. In words: A647-fractalkine competition FACS, BA/F3-huCX3CR1.
Excerpt: as §1, §2

Assay [4] addresses T1, human CX3CR1. Put plainly: A647-fractalkine competition FACS, HEK293-huCX3CR1.
Excerpt: as §1, §2

For assay [5], the target named is T1, human CX3CR1. In words: A647-fractalkine competition FACS, HEK293T human CX3CR1.
Excerpt: as §1
(§3) For later identified VHHs, a human Fractalkine competition FACS was set up using human or cynomolgus CX3CR1 expressed in HEK293T cells. Both the human and the cynomolgus receptor was transiently transfected in HEK293T cells and transfections were matched by the binding of the labeled ligand, human fractalkine. The competition was evaluated using the EC30 concentration of fractalkine and as such obtained IC50 values are a good estimate of the Ki value, a measure for affinity (Table 22). The experiment was performed as described in Example 4.

The target in assay [6] is T2, cynomolgus CX3CR1 (cynomolgus, UniProt P49238 1-355 (human entry)).
T2 construct: transiently expressed on HEK293T cells; also called cyCX3CR1; cyno CX3CR1
T2 chain: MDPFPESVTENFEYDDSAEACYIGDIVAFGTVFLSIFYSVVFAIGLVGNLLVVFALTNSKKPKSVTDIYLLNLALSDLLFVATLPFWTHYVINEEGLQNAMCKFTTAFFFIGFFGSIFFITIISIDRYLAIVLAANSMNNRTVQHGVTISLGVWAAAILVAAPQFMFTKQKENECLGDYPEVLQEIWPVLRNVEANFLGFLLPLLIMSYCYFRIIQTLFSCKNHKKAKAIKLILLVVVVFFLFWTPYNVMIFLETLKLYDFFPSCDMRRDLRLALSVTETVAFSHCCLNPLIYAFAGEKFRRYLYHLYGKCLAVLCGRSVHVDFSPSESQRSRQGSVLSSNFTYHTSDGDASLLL
In words: A647-fractalkine competition FACS, HEK293T cynomolgus CX3CR1.
Excerpt: as §1, §3

Assay [7] has as its target T2, cynomolgus CX3CR1. In words: A647-fractalkine competition FACS, cynomolgus against human CX3CR1.
Excerpt: as §1, §3

In assay [8] the target is T1, human CX3CR1. In words: periplasmic extract, A647-fractalkine competition FACS, CHO-huCX3CR1.
Excerpt: as §1

The target in assay [9] is T1, human CX3CR1. Put plainly: cell-based or functional assay. The source holds these as a separate data set.
In assay [10] the target is T1, human CX3CR1. Put plainly: fractalkine competition FACS.
Assay [11] has as its target T1, human CX3CR1. Put plainly: fractalkine competition FACS. The source holds these as a separate data set.
The target in assay [12] is T1, human CX3CR1. In words: fractalkine competition FACS. This is another data set of the same source.
Assay [13] addresses T1, human CX3CR1. In words: competition FACS, BA/F3-huCX3CR1; competitor alexa647-labeled 66B02. The text has this:
A competitive binding experiment was setup in order to determine whether the VHHs bind overlapping epitopes on CX3CR1. For this, the VHH 66B02 labeled with alexa647 was used in a competition FACS on the BA/F3 cells expressing huCX3CR1. Representative VHHs from the three functional families were used as competitors for the binding of the labeled 66B02.

B1: CX3CR1BIIPMP54B3 (VHH)
VHH: EVQLVESGGGSVQAGESLRLSCAASGSIFSSNAMAWYRQAPGKQRDLVAAINSVGITKYADSVKGRFTISRDNAKNTVYLQMNSLKPEDTAVYYCTSDPRRGWDTRYWGQGTQVTVSS
notes: also called 54B03; not shown: C-terminal c-myc and His6 tags
Take B1: the “% block, fractalkine induced chemotaxis” value with human CX3CR1 [1] was 73%. Besides, the “IC50, fractalkine induced chemotaxis” value with human CX3CR1 [1] is 100 nM. Besides, the “% block” value is 108% with human CX3CR1 [2]; 99% in the assay with human CX3CR1 [3]; 92% with human CX3CR1 [4]; 92% in the assay with human CX3CR1 [5]; 95% with cynomolgus CX3CR1 [6]; 90.1% with human CX3CR1 [8]. The IC50 with human CX3CR1 [2] is 25 nM; in the assay with human CX3CR1 [3], 33 nM; in the assay with human CX3CR1 [4], 67 nM; with human CX3CR1 [5], 67 nM; in the assay with cynomolgus CX3CR1 [6] it was 470 nM. Moreover, in the assay with cynomolgus CX3CR1 [7], the “ratio (cynomolgus/human IC50)” value turned out to be 7.05.

B2: CX3CR1BIIPMP66B02 (VHH)
VHH: B1 VHH with Q44R, I56V
modifications: alexa647 label where used as labeled competitor (Table 23)
notes: also called CX3CR1BII66B02; C100CX3CR1BII66B02; not shown: C-terminal c-myc and His6 tags
For B2, the “% block, fractalkine induced chemotaxis” value with human CX3CR1 [1] stood at 87%. The “IC50, fractalkine induced chemotaxis” value in the assay with human CX3CR1 [1] was 20 nM. In the assay with human CX3CR1 [9], the “% block, ligand induced chemotaxis” value stood at 91%. Further, in the assay with human CX3CR1 [9], the “IC50, ligand induced chemotaxis” value stood at 36 nM. In addition, the “% block” value with human CX3CR1 [10] was 101%; with human CX3CR1 [11], 98%; with human CX3CR1 [12], 98%; with human CX3CR1 [4], 102%; with human CX3CR1 [5] it was 102%; in the assay with cynomolgus CX3CR1 [6], 97%. Besides, the “% block” value with human CX3CR1 [13] was 100%. The IC50 was found to be 2.6 nM with human CX3CR1 [10]; 2.5 nM with human CX3CR1 [11]; 2.5 nM with human CX3CR1 [12]; 2.5 nM in the assay with human CX3CR1 [4]; 2.5 nM with human CX3CR1 [5]; 19 nM with cynomolgus CX3CR1 [6]. For the same molecule, the IC50 with human CX3CR1 [13] was 1.5 nM. Besides, in the assay with cynomolgus CX3CR1 [7], the “ratio (cynomolgus/human IC50)” value came to 7.5.

B3: CX3CR1BIIPMP66G01 (VHH)
VHH: B1 VHH with V2M, A50L, P99G
notes: also called CX3CR1BII66G01; not shown: C-terminal c-myc and His6 tags
Regarding B3, in the assay with human CX3CR1 [1], the “% block, fractalkine induced chemotaxis” value is 54% and the “IC50, fractalkine induced chemotaxis” value came to 400 nM. For the same molecule, in the assay with human CX3CR1 [4], the “% block” value was 99% and the IC50 worked out at 14 nM. For the same molecule, in the assay with human CX3CR1 [5], the “% block” value came to 99% and the IC50 amounted to 14 nM. Besides, in the assay with cynomolgus CX3CR1 [6], the “% block” value was found to be 100% and the IC50 was 120 nM. For the same molecule, in the assay with cynomolgus CX3CR1 [7], the “ratio (cynomolgus/human IC50)” value worked out at 8.29.

B4: CX3CR1BII00306 (VHH)
VHH: DVQLVESGGGLVQPGGSLRLSCAASGSIFSSTAMAWYRQAPGKRRDLVAAISSVGVTKYADSVKGRFTISRDNSKNTVYLQMNSLRPEDTAVYYCTSDPRRGWDTRYWGQGTLVTVSS
notes: also called CX3CR1BII306
For B4, in the assay with human CX3CR1 [9], the “% block, ligand induced chemotaxis” value came to 95% and the “IC50, ligand induced chemotaxis” value was determined as 63 nM. In addition, in the assay with human CX3CR1 [12], the “% block” value turned out to be 97% and the IC50 stood at 1.7 nM.

B5: CX3CR1BIIPMP61G4 (VHH)
VHH: B1 VHH with E1K, E16G, N83M
notes: also called 61G04; not shown: C-terminal c-myc and His6 tags
B5: the “% block” value came out at 96% with human CX3CR1 [4], 96% in the assay with human CX3CR1 [5], 100% with cynomolgus CX3CR1 [6] and 94.5% with human CX3CR1 [8]. The IC50 with human CX3CR1 [4] came out at 42 nM; in the assay with human CX3CR1 [5] it was 42 nM; in the assay with cynomolgus CX3CR1 [6] it was 200 nM. In addition, in the assay with cynomolgus CX3CR1 [7], the “ratio (cynomolgus/human IC50)” value was 4.8.

B6: CX3CR1BII00307 (VHH)
VHH: B4 VHH with S53T
notes: also called CX3CR1BII307
In the case of B6, in the assay with human CX3CR1 [9], the “% block, ligand induced chemotaxis” value was determined as 100% and the “IC50, ligand induced chemotaxis” value amounted to 63 nM. Further, in the assay with human CX3CR1 [12], the “% block” value was found to be 97% and the IC50 worked out at 1.9 nM.

B7: CX3CR1BIIPMP54G3 (VHH)
VHH: B1 VHH with A50L, Q113L
notes: also called 54G03; not shown: C-terminal c-myc and His6 tags
As to B7, the “% block, fractalkine induced chemotaxis” value with human CX3CR1 [1] is 40%. In addition, the “% block” value with human CX3CR1 [2] was 107%; with human CX3CR1 [3] it was 98%; with human CX3CR1 [4] it was 89%; with human CX3CR1 [5] it was 89%; in the assay with cynomolgus CX3CR1 [6] it was 89%; in the assay with human CX3CR1 [8], 74.7%. Besides, the IC50 with human CX3CR1 [2] is 56 nM; with human CX3CR1 [3] it was 98 nM; in the assay with human CX3CR1 [4], 270 nM; in the assay with human CX3CR1 [5] it was 270 nM; with cynomolgus CX3CR1 [6], 470 nM. Further, in the assay with cynomolgus CX3CR1 [7], the “ratio (cynomolgus/human IC50)” value turned out to be 1.74.

B8: CX3CR1BII00308 (VHH)
VHH: B4 VHH with T32N, S52N
notes: also called CX3CR1BII308
In the case of B8, in the assay with human CX3CR1 [9], the “% block, ligand induced chemotaxis” value turned out to be 89% and the “IC50, ligand induced chemotaxis” value stood at 44 nM. In the assay with human CX3CR1 [12], the “% block” value was 97% and the IC50 was 1.6 nM.

B9: CX3CR1BIIPMP54D8 (VHH)
VHH: B1 VHH with E16G, A50G, Q113L
notes: also called 54D08; CX3CR1BII54D08; not shown: C-terminal c-myc and His6 tags
Consider B9, for which the “% block, fractalkine induced chemotaxis” value with human CX3CR1 [1] is 33%. Moreover, the “% block” value was determined as 101% with human CX3CR1 [2]; 99% with human CX3CR1 [3]; 95% with human CX3CR1 [4]; 95% with human CX3CR1 [5]; 91% with cynomolgus CX3CR1 [6]; 64.1% with human CX3CR1 [8]. Also, the IC50 worked out at 15 nM with human CX3CR1 [2]; 38 nM with human CX3CR1 [3]; 84 nM in the assay with human CX3CR1 [4]; 84 nM with human CX3CR1 [5]; 72 nM in the assay with cynomolgus CX3CR1 [6]. Further, the “ratio (cynomolgus/human IC50)” value in the assay with cynomolgus CX3CR1 [7] is 0.85.
